Reference: the nanobody polyreactivity screen of Harvey et al. (2022)

Experiment: yeast display, Sf9 membrane polyspecificity reagent, FACS + sequencing; frameworks hold sequencing errors
In short: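 Genes from sorted yeast were amplified by colony PCR, read by MiSeq 2 × 250 sequencing and filtered on CDR length. These cells carried a synthetic nanobody library in Saccharomyces cerevisiae BJ5465 and were sorted by FACS into low and high (top ~1%) gates on anti-HA and streptavidin fluorescence. Polyreactivity is labelled according to the gate of origin.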

QVKLVESGGGLVQAGGSLRLSCAAYGSTFAGYAMGWYRQAPGKERELVAAISVSGGSTDYADSVKGRFTISRDNAKNTVYLQMNSLKPEDTAVYYCAAVYVRNQWWRNYYWGQGTQVTVSS
polyreactivity (PSR sort gate): low polyreactivity

QVQLVESGGGLVQAGGSLRLSCAASGITYGYVMGLYRQAPGKERELVAAISYRGGSTYYADSVKGRFTISRDNAKNTVYLQMNSLKPEDTAVYYCATEASGKTYGYVAYDYWGQGTQVTVSS
polyreactivity (PSR sort gate): high polyreactivity

QVQLVESGGGLVQAGGSLRLSCAASGSISAGNAMGWYRQAPGKERDLVAAISGSGGSTYYADSVKGRFTISRYNAKNTVYLQMNRLKPEDTAVYYCAARGGYRLRYIPYVRYDYWGQGTQVTVSS
polyreactivity (PSR sort gate): high polyreactivity

QVQLVESGGGLVQAGGSLRLSCAASGSTIRYNAMGWYRQAPGKERELVAAISRTGGTTYYADSVKGRFTISRDNAKNTVYLQMNSLKPEDTAVYYCNAVQAPYLRYDYWGQGTQVTVSS
polyreactivity (PSR sort gate): high polyreactivity

QVQLVESGGGLVQAGGSLRLSCAASGRTISWYVMGWYRQAPGKERELVAAISWNGGRTYYADSVKGRFTISRDNAKNTVYLQMNSLKPEDTAVYYCAAKNYHGYPFDYWGQGTQVTVSS
polyreactivity (PSR sort gate): high polyreactivity

QVQLVESGGGLVQAGGSLRLSSAASGSTFQDYDMRRSRQAPGKERELVAVISGSGGCTYYADSVKGRFTISRDNAKNTVYLQMNSLKPEDTAVYYCATDIKDGRPGDGVYDYGYWGQGTQVTVSS
polyreactivity (PSR sort gate): low polyreactivity

QVQLVESGGGLVQAGGSLRLSCAASGIIFYLYTMGWYRQAPGKERELVAAISKSGARTYYADSVKGRFTISRDNAKNTVYLQMNSLKPEDTAVYYCAADVSVSGYYYWGQGTQVTVSS
polyreactivity (PSR sort gate): high polyreactivity

QVQLVESGGGLVQAGGSLRLSCAASGNTFPVNAMGWYRQAPGKERDLVAAISRTGASTYYADSVKGRITISRDNAKNTVYLQMNSLKPEDTAVYYCAKYLKTPHNRRRVEALGYWGQGTQVTVSS
polyreactivity (PSR sort gate): high polyreactivity

QVQLVESGGGLVQAGGSLRLICAASGSTFRNYAMGWYRQAPGKDRELVAAISRGDGTYYADSVKWRFTISRDNAKNTVYLLMNSLKPEYSAVYYCAAAYRGRQNPMGFWGQGTQVTVSS
polyreactivity (PSR sort gate): high polyreactivity

QVQLVESGGGLVQAGGTLRLSCAASGGTFATYAMGWCRQGPGKERELVAAITQSGGTTYYADSVKRRFTISRDNANNTVYLQMNSLKPEDTAVYYCNAEASQAVYYAYEYWGQGTQVTVSS
polyreactivity (PSR sort gate): low polyreactivity

QVQLVESGGGLVQAGGSLRLSCAASGSTFYYNTMGWYRQAPGKERELVAAISRSGGSTYYADSVKGRFTISRDNAKNTVYLQMNSLKPEDTAVYYCAARIIGARNLYGYWGQGTQVTVSS
polyreactivity (PSR sort gate): high polyreactivity

QLQLVESGGGLVQAGGSLRLSCAASGSIFASNAMGWYRQAPGKERELVAAISSGGSRTYYADSVKGRFTISRDNAKNSVYLQMNSLKPEDTAVYYCNTVWFYGAKYDYWGQGTQVTVSS
polyreactivity (PSR sort gate): high polyreactivity

QVQLVDSGGGLVQAGGSLRLSCAASGINFQGNAMGWYRQAPGKERELVASITAGGDTTYYADSVKGRFTISRDNAKNTVYLQMNSLKPEDTAVYYCAVDSWLDADDSYPDSILVDYWGQGTQVTVSS
polyreactivity (PSR sort gate): low polyreactivity

QVQLVESGGGLVQAGGSLRLSCAASGRIFYVNAMGWYRQAPGKERELVAAIDVNDGITYYADSVKGRFTISRDNAKNTVYLQMNSLKPEDTAVYYCAAETLYWNDIIWDVEYWGQGTQVTVSS
polyreactivity (PSR sort gate): high polyreactivity

QVQLVESGGGLVQAGGSLRLSCAASGITFYDYAMGWYRQAPGKERELVASIDNSGGSTYYADSVKGRFTISRDNAKNTVYLQMNSLNPEDTAVYYCAAVSRYYFLGVAFLDDYWGQGTQVTVSS
polyreactivity (PSR sort gate): high polyreactivity

QVQLVESGGGLVQAGGSLRLSCAASGSTFFGYTMGWYRQAPGKERELVAAITASDGSTYYADSVKGRFTISRDNAKNTVYLQMNSLKPEDTAVYYCNADYRLVRSFRLSSYTYIYDYWGQGTQVTVSS
polyreactivity (PSR sort gate): low polyreactivity

QVQLVESGGGLLQAGGSLRLSCAASGNTFITNAKGWYRQAPGKERDLVAAISSGGTTYYADSVKGRFTISRDTAKNTVYLQMYSLKPEDTAVYYCATDIHSVHNNRDKHDYDYWGQGTQVTVSS
polyreactivity (PSR sort gate): low polyreactivity

QVQLVESGGGLVQAGGSLRLSCAASGSTFNINVMGWYRQAPGKERELVASISTGDITYYADSVKGRFTISRDNAKNTVYLQMNSLKPEDTAVYYCAAESYTGKYSWVWKWYDYWGQGTQVTVSS
polyreactivity (PSR sort gate): low polyreactivity

QVQLVESGGGLVQAGGSLRLSCAASGRIFARYAMGWYRQAPGKERELVAAISFRGGSTYYADSVKGRFTISRDNAKNTVYLQMNSQKPEDTAVYYCNGRYGRGGYDYWGQGTQVTVSS
polyreactivity (PSR sort gate): high polyreactivity

QVQLVDSGGGLVHAGGRLGLSREDYGSTFPYYSMGWYRQAPGKERELVAAISGGGGSTYYADSVKGRFTISRDNAKNTVYLQMNSLKPEDSAVYYCNAYKYISPGDYWGQGTQVTVSS
polyreactivity (PSR sort gate): high polyreactivity

QVQLVESGGGLVQAGGSLRLSCAASGIFRRYAMGWYRQAPGKERELVATITSGGSTNYADSVKGRFTISRDNAKNTVYLQMNSLKPEDTAVYYCNALYGARRYTRWYTGMDYWGQGTQVTVSS
polyreactivity (PSR sort gate): high polyreactivity

QVQLVESGGGIVQAGGSLRLSCDGSGSTFTYYAMGWYRQEPGKEWEFVAAISRRGGSTYYADSVKGRFTISRDNAKNTVYFQLNSLKPEDTAVSDCNVVIYSYGINGRYDYWGQGTQVTVSS
polyreactivity (PSR sort gate): high polyreactivity

QVQLVESGVGLVQAGGSLRLSCGASGSIFVANVMGWYRQAPGKEREFVATISWNGGNTYYADSVKGRFTISRDNAKNTVYLQMNSLKPEDTAVYYCAAEPLTPSRDRVPYEYYYWGQGTQVTVSS
polyreactivity (PSR sort gate): high polyreactivity

QVQLVESGGGLVQAGGSLRLSCAASGIIFRKYAMGWYRQAPGKERELVAAISFSGGTTYYADSVKGRFTISRDNAKNTVYLQMNSLKPEDTAVYYCAADPVAYVIDDYYWGQGTQVTVSS
polyreactivity (PSR sort gate): high polyreactivity

QVQLEESGGGLVQAGGSLRLSCAASGNILWKNAMGWYRQAPGKERELVAAITRSGGSTYYADSVKGRFTISRDNAKNTVYLQMNSLKPEDTAVYYCATRNLGYRPYRYDYWGQGTQVTVSS
polyreactivity (PSR sort gate): high polyreactivity

QVQLVESGGGLDQAGGSLRLSCAASGRTFEQYAMGWYRQAPGKVRELVAAISGSGGSTFYADSVKGRFTISRDNAKNTVYLQMNSLKPEDTAVYYCADKYDGSYVGLYWYSMNYCGQGTQVTVSS
polyreactivity (PSR sort gate): low polyreactivity

QVQLVESGGGLVQAGGSLRLSCAASGSTFGGYAMGWYRPAPGKERELVAAISGSGVRTYYADSVKGRFTISRDNAKNTVYLQMNSLKPEDTAVYYCAKRVRYPGDRYYYWGQGTQVTVSS
polyreactivity (PSR sort gate): high polyreactivity

QVQLVESGGGLVQAGGSLRLSCAASGRIFRWYGMGWYRQAPRKERELFAAISGRGGSTYYADSVKGRFTISRDIAKNTVYLQMNSLKPEDSGVYYCKKDPYYIYRPGSGQGYAFNYWGQGTQVTVSS
polyreactivity (PSR sort gate): high polyreactivity

QVQLVESGGGLVQAGGSLSLSCAASGRIFTRYAMGWYRQAPGKERELVAAISYGGGGTYYADSVKGRFTISRDNAKNTVYLQMNSLKPEDTAVYYCATDDPLSQINEHGMDYWGQGTQVTVSS
polyreactivity (PSR sort gate): low polyreactivity

QVQLVESGGGLVQEGGSLRLSCAASGILVYNAMGWYRQAPGTERELVAAISARGGRTYYADSVKGRFTISRDNAQNTDSLQMNSLKPEDTAVYYCASRSSKSRTYDYWGQGTQVTVSS
polyreactivity (PSR sort gate): high polyreactivity

QVQLVESGGGLVQAGGSLRLSCAASGSIFYYNAMGWSRQAPGKERELVAAIRSTGSSNDADSVKGRFTISRDNAKNTVYLQMNSLKPEDTAVYYCAADQYGRSRDYGYGYWGHGTQVTVSS
polyreactivity (PSR sort gate): low polyreactivity

QVHLVESGGGLVQAGGSLRLSCAASGRNFGYNAMGWYRQAPRKEREFVASISSSGGLTYYSDSVKGRFTISRDNAKNTVYLQMNSLKPEDSAFYDCARQGYYLYSKYDYWGQGTQVTVSS
polyreactivity (PSR sort gate): high polyreactivity

QVQLVESGGGLVQAGGSLRLSCAASGRIFDPNAMGWYRQAPGKERELVAAISSRSGSTFYADSVKGRFTISRDNAKNTVYLQMNSLKPEDTAVYYCAAVYRFYKHNYWGQGTQVTVSS
polyreactivity (PSR sort gate): high polyreactivity

QVQLVEAGGGLVQAGGSLRLSCAAYGRTFYTYAMGWYRQAPGKEREFVAAITWSGGSTYYADSVKGRFTISRDNAKNTVYLQMNSLKPEDPAVYYCAAGSRFRYSPGQSYEYGYWGQGTQVTVSS
polyreactivity (PSR sort gate): low polyreactivity

QVQLVDSGGGLVQAGGSLRLSCAATGFTLPKYAMGWYRQAPGKERELVAAISSGGSTYYADSVKGRYTISRDNAKNTVYLQMNSLKPEDSAVYYCAAKYYYYRRDYWGQGTQVTLSS
polyreactivity (PSR sort gate): high polyreactivity

QVQLVESGGGLVQAGGSLRLSCAASGRTFFYNAMGWYRQAPGKERELVARITQSGVITYYADSVKGRFTISRDNAKNTVYLQMNSLKPEDTAVYYCNADDTYSPFRGVSYDYWGQGTQVTVSS
polyreactivity (PSR sort gate): low polyreactivity

QVQLVESGVGLVQAGGSLRLSCAASGSTFYAYAMGWNRQAPGKERELVAAISSDGTNYADSVKGRFTISRDNAKNTVYLQMNSLKPDDTAVYYCAADLLLYSSQDNDYWGQGTQVTVSS
polyreactivity (PSR sort gate): low polyreactivity

QVQLVETGGGLVQAGGSLRISCAPSGSIFQRYAMGWYTQAPGKERELVAAITGSGGSTYYADSVMWRFTISRDNAKKTVYLQMNILKPEDSAVYYCAKRYPSRQYTLYNYWGLGTQVTVSS
polyreactivity (PSR sort gate): high polyreactivity

QVQIVESGGGLVQAGGSLRLSCAASGSIFASYTMGWYRQAPGKERELGATIRRTGSTYYADSVKGRFTISRDNAKNTVYLQMNSLKPDDTAVYYCAAGLRRKQGLTSGYEYGGQGTQVTVSS
polyreactivity (PSR sort gate): high polyreactivity

QVQLVESGGGLVQAGGSLRLSCAASGSIFPDNAMGWYRQAPGKERELVAAISLSGGRTYYADSVKGRFTISRDNAKNTVYLQMNSLKPEDTAVYYCAAKQRPKSYGPGHYYWGQGTQVTVSS
polyreactivity (PSR sort gate): high polyreactivity

QVQLVESGGGLVQAGGSLRLSCAASGRTFSWYAMGWYRQAPGKERELVAAITRDGGNTYYADSVKGRFTISRDNAKNTVYLQMNSLKPEDTAVYYCAAAPTTGKRPGYYYWGQGTQVTVSS
polyreactivity (PSR sort gate): high polyreactivity

QVQLVESGGGLVQAGGSLRLSCAASGSTFKWYGMGWYRQAPGKERELVATINYSSSTTYYADSVKGRFTISRDNAKNTVYLQMNSLKPEDTAVYYCAKGVYWGTKSTYDYWGQGTQVTVSS
polyreactivity (PSR sort gate): high polyreactivity

QVQLVESGGGLVHAGGTLRLTCAASGFIFKRYTLGWYRQAPGQERELFATINRNGGNTYYADSVKGRFTISRDNAKNTVYLQMNILKPEDTSVYYCNARYWRAQGWPGYDYWGQGTQVTVSS
polyreactivity (PSR sort gate): high polyreactivity
